PMC4529466, “Intradermal insulin infusion achieves faster insulin action than subcutaneous infusion for 3-day wear” (Drug Delivery and Translational Research, 2015)

Assay: Safety: adverse events, hypoglycemia, Draize erythema and edema scoring of infusion site
Format: in vivo, human (T1DM patients)
Experimental: Safety evaluations comprised of recording/classification of adverse events (including hypoglycemia, BG < 60 mg/dL with or without symptoms), physical examinations, clinical laboratory parameters, vital signs, subjective pain assessments, and assessments of local tissue response at the injection site. Visual observations of the area around the infusion site for skin irritation, insulin leakage, and any notable abnormalities were recorded after each bolus delivery. Upon device removal, the study physician checked the site of insulin administration, as well as 1 and 2 h later, and scored any local reactions according to the Draize erythema and edema scale.
Pharmacokinetic parameters were derived from baseline corrected blood insulin data. The pharmacokinetic and pharmacodynamic populations included all patients with data from either route across 3 days of infusion and patients exposed to at least one trial product with available data respective of PK/PD endpoints. PK and PD endpoints were analyzed using a linear mixed effects model (ANOVA) with sequence, application route, meal, and day as factors along with interactions. The safety population included all patients who had participated in any trial-related activity after randomization. VAS pain data comparisons were made between application routes at each assessment time point using a similar model. Safety evaluations were summarized by descriptive statistics.

Substance: insulin aspart
- hypoglycemic episodes (BG below 60 mg/dL) (ID infusion): 67 episodes
- subjects with hypoglycemic episodes (ID infusion): 22 subjects
- instances with Draize erythema score 2 (ID route, within 2 h after set removal on day 3): 4/24
- hypoglycemic episodes (BG below 60 mg/dL) (SC infusion): 56 episodes
- subjects with hypoglycemic episodes (SC infusion): 18 subjects
- detected hypoglycemic episodes, total (across the study, both routes, majority asymptomatic): 123 episodes
- Draize erythema and edema upon removal of infusion set (both routes, immediately after removal on day 3): essentially no detectable erythema or edema
- adverse events (AEs), total (entire study, both routes, mild to moderate severity, none serious): 31
